Laboratory results: patent publication US20260053913A1 (BIOENTRE, published 2026)

B1: BNI3, mouse IgG2a anti-human CTLA4 (CD152) antibody from BioXcell (antibody, V domains shown)
VH: DVQLQESGPGLVKPSQSLSLTCSVTGYSITSGYVWNWIRQFPGNKLEWMGYISHDGNTNYNPSLKNRISITRDTSKNQFFLKLNSVTTEDSATYYCTRNYGYGGTMDYWGQGTAVSVSS
VL: DIVMTQSQKFMSTSVGDRVSVTCKASQNVGTYVAWYEQKLGQSPKALIFSASYRYTGVPDRFTGSGSGTDFTLTISNVQSEDLAEYFCQQYDSYPLTFGGGTKLEIKR
B2: BioE2032 (121 HuIgG1) (antibody, V domains shown)
VH: QVQLQESGPGLVKPSQTLSLTCTVSGFSLTSYGVYWVRQPPGKGLEWLGVIWAGGTTNYNSALMSRLTISKDTSKNQVSLKLSSVTAADTAVYYCARGPPHAMMKRGYAMDYWGQGTLVTVSS
VL: DIQMTQSPSSLSASVGDRVTITCSATSSITYMSWYQQKPGKAPKLLIYDTSNLASGVPSRFSGSGSGTDYTLTISSLQPEDFATYYCQQWSSYPLTFGGGTKLEIK
B3: L3D10 (antibody, from another filing, V domains shown)
VH: QVQLKESGPGLVAPSQSLSITCTVSGFSLTSYGLSWVRQPPGKGLEWLGVIWYDGNTNFHSALISRLTISKDNSKSQVFLELNSLQTDDTATYYCAKTEGHYYGSNYGYYALDYWGQGTSVTVSS
VL: DIQMTQSPASLSVSVGETVTITCRASENIYSNLAWYQQKQGKSPQLLVYAATNLADGVPSRFSGSGSGTQYSLKINSLQSEDFGTYFCQHLWGTPYTFGGGTKLEIKR

Tests used:
[1] = target: T1, human CTLA4 (cytotoxic T-lymphocyte-associated antigen-4), isoform CTLA4-TM (human, UniProt P16410 36-223); assay: cell-based or functional assay
T1 sequence: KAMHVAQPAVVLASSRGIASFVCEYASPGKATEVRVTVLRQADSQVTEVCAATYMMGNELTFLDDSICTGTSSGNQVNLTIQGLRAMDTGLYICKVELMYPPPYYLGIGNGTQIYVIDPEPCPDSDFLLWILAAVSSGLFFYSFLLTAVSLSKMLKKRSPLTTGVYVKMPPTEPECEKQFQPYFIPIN

[2] = target: human CTLA4 (cytotoxic T-lymphocyte-associated antigen-4), isoform CTLA4-TM (human) (UniProt P16410); assay: cell-based or functional assay

| Binder | biological activity relative to Ipilimumab, Promega anti-CTLA 4 and anti-CTLA 4 + anti-PD1 functional blockade assays [1] | half maximum activity concentration, αCTLA 4 functional blockade assay [1] | maximal activity (ratio RLU), αCTLA 4 functional blockade assay [2] | plateau of the titration curve (ratio RLU over background) at 200 nM or greater [2] |
| --- | --- | --- | --- | --- |
| B1 | < 60 % of Ipilimumab activity | ~50 nM | – | – |
| B2 | – | ~50 nM | – | – |
| B3 | – | – | 15 ratio RLU | 15 to 20 ratio RLU |
